Data: paper PMC8100869 (Biochemistry, 2020)

Target: the molecule itself
Experiment: crystal structure

B1: Catabolite Activator Protein (CAP) (natural protein)
chain: VLGKPQTDPTLEWFLSHCHIHKYPSKSTLIHQGEKAETLYYIVKGSVAVLIKDEEGKEMILSYLNQGDFIGELGLFEEGQERSAWVRAKTACEVAEISYKKFRQLIQVNPDILMRLSAQMARRLQVTSEKVGNLAFLDVTGRIAQTLLNLAKQPDAMTHPDGMQIKITRQEIGQIVGCSRETVGRILKMLEDQNLISAHGKTIVVYGTR
binding result: binds
